Measured values as given in article PMC3919625 (Cell reports, 2013).

Molecular target: gp120 from HIV-1 strain SF162 (clade B) (HIV-1 group M subtype B, isolate SF162, UniProt P19550, strain)
Assay: SPR

B1: 2G12 IgG monomer (antibody, V domains shown)
VH: EVQLVESGGGLVKAGGSLILSCGVSNFRISAHTMNWVRRVPGGGLEWVASISTSSTYRDYADAVKGRFTVSRDDLEDFVYLQMHKMRVEDTAIYYCARKGSDRLSDNDPFDAWGPGTVVTVSP
VL: VVMTQSPSTLSASVGDTITITCRASQSIETWLAWYQQKPGKAPKLLIYKASTLKTGVPSRFSGSGSGTEFTLTISGLQFDDFATYHCQHYAGYSATFGQGTRVEIK
Q: Does B1 bind?
A: Result: binds

B2: 2G12 IgG dimer (antibody, V domains shown)
VH: B1 VH
VL: B1 VL
Q: Does B2 bind?
A: Result: binds
